This test concerns the target bovine α-thrombin (bovine). As to the kind of experiment: SPR. (In SPR one partner is held on a chip, and binding of the other changes the refractive index at the surface.)

What is called Kd is the free concentration of one partner at which half of the binding sites on the other are occupied at equilibrium, for simple one-to-one binding. Higher therefore signals lower affinity. The substance “TMEGF56, fragment of thrombomodulin with the fifth and sixth EGF-like domains (domain or fragment)” returned a Kd of 1.7 nM.

The values above are taken from publication PMC3107735.
